Patent publication US20180148474A1 (KOREA UNIVERSITY RESEARCH AND BUSINESS FOUNDATION SEJONG …, published 2018)

Each binder was assayed against thymic stromal lymphopoietin (TSLP) (assay: cell-based or functional assay).
Chain of thymic stromal lymphopoietin (TSLP) (Q969D9 29-159): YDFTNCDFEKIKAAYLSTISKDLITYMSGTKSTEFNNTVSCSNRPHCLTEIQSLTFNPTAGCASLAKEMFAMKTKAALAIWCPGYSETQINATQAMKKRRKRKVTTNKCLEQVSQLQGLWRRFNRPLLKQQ

| Binder | Degrees of phosphorylation of STAT5 molecules in cells (%), 0.3 µM peptide mixed with TSLP 100 ng/mL, HMC-1 cells, flow cytometry; control with TSLP alone = 100% | Degrees of phosphorylation of STAT5 molecules in cells (%), 3 µM peptide mixed with TSLP 100 ng/mL, HMC-1 cells, flow cytometry; control with TSLP alone = 100% | Degrees of phosphorylation of STAT5 molecules in cells (%), 30 µM peptide mixed with TSLP 100 ng/mL, HMC-1 cells, flow cytometry; control with TSLP alone = 100% |
| --- | --- | --- | --- |
| Ac-RQRASA-OH [Compound 3 (peptide derivative of Formula 3): CH3CONH-Arg-Gln-Arg-Ala-Ser-Ala-COOH] | 73.5% | 67.8% | 66.9% |
| H-RQRASA-OH [Compound 2 (peptide derivative of Formula 2): H2N-Arg-Gln-Arg-Ala-Ser-Ala-COOH] | 84.4% | 77.9% | 69.8% |
| Ac-ARQRASA-OH [Compound 5 (peptide derivative of Formula 5): CH3CONH-Ala-Arg-Gln-Arg-Ala-Ser-Ala-COOH] | 86.1% | 84.6% | 77.1% |
| H-ARQRASA-OH [Compound 4 (peptide derivative of Formula 4): H2N-Ala-Arg-Gln-Arg-Ala-Ser-Ala-COOH] | 71% | 68.3% | 70.9% |
